Experimental data as given in article PMC1911201 (Molecular Systems Biology, 2007).

Tests used:
Assay in all cases: peptide or protein array
[1] = target: T1, Yjl084c (S. cerevisiae, UniProt P47029 1-1046)
T1 sequence (looked up): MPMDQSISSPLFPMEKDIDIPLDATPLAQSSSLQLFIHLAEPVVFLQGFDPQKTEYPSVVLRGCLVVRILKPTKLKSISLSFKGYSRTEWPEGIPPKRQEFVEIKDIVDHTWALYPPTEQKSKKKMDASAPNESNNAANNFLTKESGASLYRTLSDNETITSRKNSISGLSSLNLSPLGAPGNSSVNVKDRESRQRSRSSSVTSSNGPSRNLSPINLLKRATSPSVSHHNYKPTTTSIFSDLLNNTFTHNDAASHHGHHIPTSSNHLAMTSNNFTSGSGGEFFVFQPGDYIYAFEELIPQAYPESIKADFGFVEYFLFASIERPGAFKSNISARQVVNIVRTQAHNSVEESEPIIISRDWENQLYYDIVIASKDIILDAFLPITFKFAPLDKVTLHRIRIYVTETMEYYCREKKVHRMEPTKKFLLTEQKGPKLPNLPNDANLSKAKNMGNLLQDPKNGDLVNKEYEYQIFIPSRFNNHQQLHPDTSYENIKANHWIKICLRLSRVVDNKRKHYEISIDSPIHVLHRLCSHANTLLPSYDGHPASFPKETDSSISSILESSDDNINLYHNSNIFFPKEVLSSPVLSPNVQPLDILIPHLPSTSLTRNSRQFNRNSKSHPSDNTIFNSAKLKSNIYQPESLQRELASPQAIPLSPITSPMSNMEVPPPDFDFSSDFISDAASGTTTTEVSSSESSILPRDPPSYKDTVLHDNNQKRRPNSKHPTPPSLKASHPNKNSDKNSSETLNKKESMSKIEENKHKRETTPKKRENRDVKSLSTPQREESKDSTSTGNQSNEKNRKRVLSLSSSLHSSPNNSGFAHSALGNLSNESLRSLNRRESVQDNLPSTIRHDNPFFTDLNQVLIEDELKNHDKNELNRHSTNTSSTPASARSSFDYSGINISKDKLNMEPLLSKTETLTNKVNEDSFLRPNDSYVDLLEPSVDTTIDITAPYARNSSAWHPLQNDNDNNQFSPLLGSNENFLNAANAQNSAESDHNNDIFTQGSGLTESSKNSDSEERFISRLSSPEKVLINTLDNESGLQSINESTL

[2] = target: T2, Ykr021w (S. cerevisiae, UniProt P36117 1-915)
T2 sequence (looked up): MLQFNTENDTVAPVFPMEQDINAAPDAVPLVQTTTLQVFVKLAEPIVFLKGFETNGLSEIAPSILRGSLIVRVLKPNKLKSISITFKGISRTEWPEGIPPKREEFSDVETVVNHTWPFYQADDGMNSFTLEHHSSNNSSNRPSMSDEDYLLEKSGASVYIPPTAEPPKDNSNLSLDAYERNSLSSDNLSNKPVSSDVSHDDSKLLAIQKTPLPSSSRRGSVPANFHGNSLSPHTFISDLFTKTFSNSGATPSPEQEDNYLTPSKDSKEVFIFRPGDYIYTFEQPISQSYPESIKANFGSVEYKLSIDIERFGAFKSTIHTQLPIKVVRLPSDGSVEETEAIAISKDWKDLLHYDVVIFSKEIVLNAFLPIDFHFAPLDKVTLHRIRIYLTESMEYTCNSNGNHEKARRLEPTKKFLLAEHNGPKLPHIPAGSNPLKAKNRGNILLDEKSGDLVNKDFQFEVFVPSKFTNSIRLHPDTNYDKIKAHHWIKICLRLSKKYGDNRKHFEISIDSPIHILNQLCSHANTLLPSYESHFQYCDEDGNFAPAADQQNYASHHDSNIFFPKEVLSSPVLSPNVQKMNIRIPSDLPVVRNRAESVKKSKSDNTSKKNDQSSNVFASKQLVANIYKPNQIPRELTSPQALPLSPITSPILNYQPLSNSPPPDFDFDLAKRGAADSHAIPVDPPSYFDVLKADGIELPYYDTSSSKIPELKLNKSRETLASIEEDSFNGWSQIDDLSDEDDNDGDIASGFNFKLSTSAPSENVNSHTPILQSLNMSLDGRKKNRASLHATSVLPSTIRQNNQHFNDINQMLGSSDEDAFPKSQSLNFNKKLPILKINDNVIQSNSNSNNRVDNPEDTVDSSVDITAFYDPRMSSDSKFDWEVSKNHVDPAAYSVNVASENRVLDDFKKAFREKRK

[3] = target: T3, Dis3 (S. cerevisiae, UniProt Q08162 1-1001)
T3 sequence (looked up): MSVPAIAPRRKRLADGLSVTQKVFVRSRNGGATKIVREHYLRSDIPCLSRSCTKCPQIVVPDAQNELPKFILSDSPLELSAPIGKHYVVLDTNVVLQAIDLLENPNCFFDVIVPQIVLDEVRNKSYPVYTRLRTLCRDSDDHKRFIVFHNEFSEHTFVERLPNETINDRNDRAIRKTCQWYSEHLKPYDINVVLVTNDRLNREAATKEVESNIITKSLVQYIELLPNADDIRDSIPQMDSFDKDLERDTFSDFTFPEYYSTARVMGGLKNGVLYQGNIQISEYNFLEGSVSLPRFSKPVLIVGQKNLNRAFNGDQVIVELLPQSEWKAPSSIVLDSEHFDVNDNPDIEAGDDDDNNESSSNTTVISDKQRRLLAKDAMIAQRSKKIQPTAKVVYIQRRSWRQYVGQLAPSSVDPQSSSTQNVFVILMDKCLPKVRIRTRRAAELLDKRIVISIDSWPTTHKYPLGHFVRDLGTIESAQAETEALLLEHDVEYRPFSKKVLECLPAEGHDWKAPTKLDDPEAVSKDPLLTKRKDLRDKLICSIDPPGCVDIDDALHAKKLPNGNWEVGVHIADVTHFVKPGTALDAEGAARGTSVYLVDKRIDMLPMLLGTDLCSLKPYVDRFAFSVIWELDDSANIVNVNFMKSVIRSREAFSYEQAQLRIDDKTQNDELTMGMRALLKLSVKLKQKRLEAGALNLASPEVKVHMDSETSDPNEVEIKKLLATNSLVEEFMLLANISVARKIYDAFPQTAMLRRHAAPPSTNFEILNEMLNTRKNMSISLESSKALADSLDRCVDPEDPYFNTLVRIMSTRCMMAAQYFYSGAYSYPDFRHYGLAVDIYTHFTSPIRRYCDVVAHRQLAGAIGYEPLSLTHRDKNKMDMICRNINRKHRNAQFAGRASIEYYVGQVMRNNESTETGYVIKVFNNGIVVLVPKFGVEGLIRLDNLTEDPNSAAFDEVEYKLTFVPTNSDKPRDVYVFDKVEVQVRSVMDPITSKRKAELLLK

Measured: binding result

B1: Rsp5 (enzyme)
chain: not shown
modifications: labeled with AlexaFluor 647 (Microscale Protein Labeling kit)
binds: all assays above
